The record followed here is PMC9709061.

In general, stoichiometry N refers to the number of molecules, sites or subunits per partner or assembly.

The assay addresses HSP90β (human) (UniProt P08238). The assay is described as follows: cryo-EM structure; HSP90–CDC37–BRAF^V600E complex incubated with PP5 D274N, purified by SEC, cross-linked with 1 mM BS3; one sample gave three classes: HCK (3.4 Å), HCK-P open (4.2 Å), HCK-P closed (3.9 Å); PP5 modelled by rigid-body docking.

Take “HSP90β, P08238 1-724 (natural protein; phosphorylation at Ser226 and Ser255 found by mass spectrometry; phosphorylation at Ser226 and Ser255 found by mass spectrometry; other documents disagree on this pair)”: the stoichiometry N was 2.
